Where a chain is given by its changes, count along the chain named. Values belong to the binder of their own block, whether it stands above or below them.
Assays:
[1] = biological target: recombinant huCLDN18.2-Fc (human); assay: KinExA 4000, equilibrium in solution, antibody constant, huCLDN18.2-Fc titrated
[2] = biological target: His-tagged human Claudin-18.2 (human); assay: SPR, Biacore 8K, antibody captured by anti-human IgG (Fc), His-tagged human Claudin-18.2 as analyte
[3] = biological target: human CLDN18.2 expressed on cells (human); assay: flow cytometry (geometric mean, Alexa Fluor 647 anti-human IgG Fc secondary) on CLDN18.2-expressing 293T cells
[4] = biological target: human CLDN18.2 expressed on cells (human); assay: cell-based or functional assay

- Kd [1]: 1.7 nM
- Kd [2]: 2.05 nM
- koff [2]: 0.0014 s⁻¹
- kon [2]: 686000 M⁻¹ s⁻¹
B1: YL-G2-B (antibody, human IgG1, kappa)
heavy: EVQLQQSGPELEKPGASVKISCKASGYSFTGYKMNWVKQSNGKSLEWIGNIDPYYGGTTYNQKFKGKATLTVDKSSSTAYMQLKSLTSEDSAVYYCARYGKGNTMDYWGQGTSVTVSSASTKGPSVFPLAPSSKSTSGGTAALGCLVKDYFPEPVTVSWNSGALTSGVHTFPAVLQSSGLYSLSSVVTVPSSSLGTQTYICNVNHKPSNTKVDKRVEPKSCDKTHTCPPCPAPELVGGPSVFLLPPKPKDTLMISRTPEVTCVVVDVSHEDPEVKFNWYVDGVEVHNAKTKPPEEQYNSTLRVVSVLTVLHQDWLNGKEYKCKVSNKALPAPIEKTISKAKGQPREPQVYTLPPSREEMTKNQVSLTCLVKGFYPSDIAVEWESNGQPENNYKTTPLVLDSDGSFFLYSKLTVDKSRWQQGNVFSCSVMHEALHNHYTQKSLSLSPGK
light: DIVMTQSPSSLTVTAGEKVTMSCKSSQSLLNSGNQKNYLTWYQQRPGQPPKLLIYWASTRESGVPVRFTGSGSGTDFTLTISSVQAEDLAVYYCQNAYIYPLTFGTGTKLELKRTVAAPSVFIFPPSDEQLKSGTASVVCLLNNFYPREAKVQWKVDNALQSGNSQESVTEQDSKDSTYSLSSTLTLSKADYEKHKVYACEVTHQGLSSPVTKSFNRGEC

- Kd [1]: 3.8 nM
- Kd [2]: 1.11 nM
- koff [2]: 0.000591 s⁻¹
- kon [2]: 532000 M⁻¹ s⁻¹
B2: YL-G2-C (antibody, human IgG1, kappa)
heavy: QIQLVQSGPELRKPGETVKISCKASGFPFTTDGMSWVKQAPGKGLKWMGWINTYSGVPTYADDFKGRVAFSLETSASTAYLQIKNLKNEDTATYFCARFRRGNALDNWGQGTSVTVSSASTKGPSVFPLAPSSKSTSGGTAALGCLVKDYFPEPVTVSWNSGALTSGVHTFPAVLQSSGLYSLSSVVTVPSSSLGTQTYICNVNHKPSNTKVDKRVEPKSCDKTHTCPPCPAPELVGGPSVFLLPPKPKDTLMISRTPEVTCVVVDVSHEDPEVKFNWYVDGVEVHNAKTKPPEEQYNSTLRVVSVLTVLHQDWLNGKEYKCKVSNKALPAPIEKTISKAKGQPREPQVYTLPPSREEMTKNQVSLTCLVKGFYPSDIAVEWESNGQPENNYKTTPLVLDSDGSFFLYSKLTVDKSRWQQGNVFSCSVMHEALHNHYTQKSLSLSPGK
light: B1 light with R45K, V66D, V91I, A97N, I99F, T106A, K109R

- Kd [1]: 6.4 nM
- Kd [2]: 1.02 nM
- koff [2]: 0.000722 s⁻¹
- kon [2]: 707000 M⁻¹ s⁻¹
B3: YL-G2-D (antibody, human IgG1, kappa)
heavy: QLQQSGPELEKPGASVKISCKASGYSFTGYKMNWVKQSNGESLEWIGNIDPYYGDTTYTQKFKGKATFTVDTSSSTAYMQLKSLTSEDSAVYFCARYNRGNTMDYWGQGTSVTVSSASTKGPSVFPLAPSSKSTSGGTAALGCLVKDYFPEPVTVSWNSGALTSGVHTFPAVLQSSGLYSLSSVVTVPSSSLGTQTYICNVNHKPSNTKVDKRVEPKSCDKTHTCPPCPAPELVGGPSVFLLPPKPKDTLMISRTPEVTCVVVDVSHEDPEVKFNWYVDGVEVHNAKTKPPEEQYNSTLRVVSVLTVLHQDWLNGKEYKCKVSNKALPAPIEKTISKAKGQPREPQVYTLPPSREEMTKNQVSLTCLVKGFYPSDIAVEWESNGQPENNYKTTPLVLDSDGSFFLYSKLTVDKSRWQQGNVFSCSVMHEALHNHYTQKSLSLSPGK
light: B1 light with M21L, T75A, Y93F, I99F, K113R

- EC50 (read off the curve) [3]: 0.8 µg/mL
- ADCC on KATOIII CLDN18.2 cells, LDH: EC50 (run A) [4]: 0.12 nM
- ADCC on KATOIII CLDN18.2 cells, LDH: EC50 (run B) [4]: 0.22 nM
- ADCC on KATOIII CLDN18.2 cells, LDH: EC50 (run C) [4]: 0.27 nM
- ADCC on NCI-N87 CLDN18.2 cells, LDH: EC50 (run A) [4]: 0.057 nM
- ADCC on NCI-N87 CLDN18.2 cells, LDH: EC50 (run B) [4]: 0.082 nM
- ADCC on NCI-N87 CLDN18.2 cells, LDH: EC50 (run C) [4]: 0.1 nM
- CDC on CT26 CLDN18.2 cells, LDH: EC50 (run A) [4]: 11.5 nM
- CDC on CT26 CLDN18.2 cells, LDH: EC50 (run B) [4]: 10.7 nM
- CDC on CT26 CLDN18.2 cells, LDH: EC50 (run C) [4]: 11.9 nM
- CDC on KATOIII CLDN18.2 cells, LDH: EC50 (run A) [4]: 38.1 nM
- CDC on KATOIII CLDN18.2 cells, LDH: EC50 (run B) [4]: 22.7 nM
- CDC on KATOIII CLDN18.2 cells, LDH: EC50 (run C) [4]: 27.5 nM
B4: reference mAb (IMAB362, Ganymed) (antibody, INN chains, looked up, V domains shown)
VH: QVQLQQPGAELVRPGASVKLSCKASGYTFTSYWINWVKQRPGQGLEWIGNIYPSDSYTNYNQKFKDKATLTVDKSSSTAYMQLSSPTSEDSAVYYCTRSWRGNSFDYWGQGTTLTVSS
VL: DIVMTQSPSSLTVTAGEKVTMSCKSSQSLLNSGNQKNYLTWYQQKPGQPPKLLIYWASTRESGVPDRFTGSGSGTDFTLTISSVQAEDLAVYYCQNDYSYPFTFGSGTKLEIKR
- ADCC on KATOIII CLDN18.2 cells, LDH: max (% cytotoxity) (run A) [4]: 27.9%
- ADCC on KATOIII CLDN18.2 cells, LDH: max (% cytotoxity) (run B) [4]: 24.5%
- ADCC on KATOIII CLDN18.2 cells, LDH: max (% cytotoxity) (run C) [4]: 24.5%
- ADCC on NCI-N87 CLDN18.2 cells, LDH: max (% cytotoxity) (run A) [4]: 26.1%
- ADCC on NCI-N87 CLDN18.2 cells, LDH: max (% cytotoxity) (run B) [4]: 22.1%
- ADCC on NCI-N87 CLDN18.2 cells, LDH: max (% cytotoxity) (run C) [4]: 21.1%
- CDC on CT26 CLDN18.2 cells, LDH: max (% cytotoxity) (run A) [4]: 72.5%
- CDC on CT26 CLDN18.2 cells, LDH: max (% cytotoxity) (run B) [4]: 54.7%
- CDC on CT26 CLDN18.2 cells, LDH: max (% cytotoxity) (run C) [4]: 51.6%
- CDC on KATOIII CLDN18.2 cells, LDH: max (% cytotoxity) (run A) [4]: 29.7%
- CDC on KATOIII CLDN18.2 cells, LDH: max (% cytotoxity) (run B) [4]: 46%
- CDC on KATOIII CLDN18.2 cells, LDH: max (% cytotoxity) (run C) [4]: 34.9%

— patent US20250263481A1
